Data as given in PMC7438487, “Structural studies reveal flexible roof of active site responsible for ω-transaminase CrmG overcoming by-product inhibition” (Communications Biology, 2020).

Molecular target: ω-transaminase CrmG from Actinoalloteichus cyanogriseus WH1-2216-6 (Actinoalloteichus cyanogriseus WH1-2216-6)
Assay: dynamic light scattering; apo CrmG at 4.8 mg/mL in 50 mM Tris buffer pH 7.5, 20 °C, DynaPro Titan

stoichiometry N: 2
Substance: ω-transaminase CrmG from Actinoalloteichus cyanogriseus WH1-2216-6 (enzyme)
